Reference: the supplement of paper PMC9112550, “Optimization of the antimicrobial peptide Bac7 by deep mutational scanning” (BMC Biology, 2022)

Tested on: Escherichia coli TOP10
Experiment: shrunken log2 fold change of peptide-encoding DNA abundance (4.5 h post-induction vs induction); higher = less antimicrobial activity (less host growth inhibition)
Details: time post-induction: 4.5 h; library: site-saturation at positions 5, 18, 19, 20
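Further: peptides expressed intracellularly from a pBAD plasmid library in pooled LB shake-flask culture, induced with 0.3% L-arabinose, DNA abundance read by NGS, three biological replicates, DESeq2 with apeglm shrinkage.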

| Sequence | shrunken log2 fold change |
| --- | --- |
| RRIRWRPPRLPRPRPRPKVQPRP | 0.00116 |
| RRIRWRPPRLPRPRPRPKVVPRP | 0.352 |
| RRIRWRPPRLPRPRPRPKVWPRP | 0.68 |
| RRIRWRPPRLPRPRPRPKWRPRP | 0.428 |
| RRIRWRPPRLPRPRPRPKYHPRP | 0.185 |
| RRIRWRPPRLPRPRPRPLAHPRP | 0.29 |
| RRIRWRPPRLPRPRPRPLAQPRP | 0.469 |
| RRIRWRPPRLPRPRPRPLAWPRP | 0.474 |
| RRIRWRPPRLPRPRPRPLDAPRP | 0.354 |
| RRIRWRPPRLPRPRPRPLDDPRP | 0.454 |
| RRIRWRPPRLPRPRPRPLDRPRP | 0.146 |
| RRIRWRPPRLPRPRPRPLEGPRP | -0.158 |
| RRIRWRPPRLPRPRPRPLENPRP | 0.0135 |
| RRIRWRPPRLPRPRPRPLFLPRP | -0.318 |
| RRIRWRPPRLPRPRPRPLGWPRP | 2.31 |
| RRIRWRPPRLPRPRPRPLHAPRP | 0.499 |
| RRIRWRPPRLPRPRPRPLHEPRP | 0.148 |
| RRIRWRPPRLPRPRPRPLIYPRP | -0.299 |
| RRIRWRPPRLPRPRPRPLKEPRP | -0.0713 |
| RRIRWRPPRLPRPRPRPLLHPRP | 0.493 |
| RRIRWRPPRLPRPRPRPLMFPRP | -0.122 |
| RRIRWRPPRLPRPRPRPLNSPRP | -0.107 |
| RRIRWRPPRLPRPRPRPLPFPRP | -0.387 |
| RRIRWRPPRLPRPRPRPLPMPRP | 0.105 |
| RRIRWRPPRLPRPRPRPLQCPRP | 0.101 |

| Sequence | shrunken log2 fold change |
| --- | --- |
| RRIRWRPPRLPRPRPRPLRMPRP | 0.531 |
| RRIRWRPPRLPRPRPRPLRPPRP | 0.923 |
| RRIRWRPPRLPRPRPRPLSWPRP | 0.0993 |
| RRIRWRPPRLPRPRPRPLTLPRP | -0.00729 |
| RRIRWRPPRLPRPRPRPLTVPRP | -0.0954 |
| RRIRWRPPRLPRPRPRPLVAPRP | 0.815 |
| RRIRWRPPRLPRPRPRPLWRPRP | 3.71 |
| RRIRWRPPRLPRPRPRPLYHPRP | -0.307 |
| RRIRWRPPRLPRPRPRPMDDPRP | -0.172 |
| RRIRWRPPRLPRPRPRPMDIPRP | -0.175 |
| RRIRWRPPRLPRPRPRPMEKPRP | 0.0685 |
| RRIRWRPPRLPRPRPRPMFIPRP | -0.378 |
| RRIRWRPPRLPRPRPRPMGKPRP | 0.561 |
| RRIRWRPPRLPRPRPRPMGMPRP | 0.403 |
| RRIRWRPPRLPRPRPRPMHGPRP | -0.138 |
| RRIRWRPPRLPRPRPRPMIEPRP | 0.0215 |
| RRIRWRPPRLPRPRPRPMIKPRP | -0.353 |
| RRIRWRPPRLPRPRPRPMIQPRP | -0.000914 |
| RRIRWRPPRLPRPRPRPMLFPRP | -0.00681 |
| RRIRWRPPRLPRPRPRPMLMPRP | -0.0339 |
| RRIRWRPPRLPRPRPRPMLYPRP | 0.0136 |
| RRIRWRPPRLPRPRPRPMNSPRP | -0.0812 |
| RRIRWRPPRLPRPRPRPMPCPRP | 0.113 |
| RRIRWRPPRLPRPRPRPMQPPRP | 0.185 |
| RRIRWRPPRLPRPRPRPMSIPRP | -0.191 |

| Sequence | shrunken log2 fold change |
| --- | --- |
| RRIRWRPPRLPRPRPRPMSYPRP | -0.206 |
| RRIRWRPPRLPRPRPRPMTCPRP | -0.34 |
| RRIRWRPPRLPRPRPRPMWDPRP | 0.157 |
| RRIRWRPPRLPRPRPRPMWMPRP | -0.195 |
| RRIRWRPPRLPRPRPRPMWVPRP | -0.0542 |
| RRIRWRPPRLPRPRPRPNCPPRP | -0.125 |
| RRIRWRPPRLPRPRPRPNDNPRP | -0.425 |
| RRIRWRPPRLPRPRPRPNEHPRP | -0.113 |
| RRIRWRPPRLPRPRPRPNEKPRP | 0.0011 |
| RRIRWRPPRLPRPRPRPNERPRP | 0.119 |
| RRIRWRPPRLPRPRPRPNFCPRP | 0.0758 |
| RRIRWRPPRLPRPRPRPNGFPRP | 0.128 |
| RRIRWRPPRLPRPRPRPNKCPRP | -0.109 |
| RRIRWRPPRLPRPRPRPNMCPRP | -0.0387 |
| RRIRWRPPRLPRPRPRPNMTPRP | 0.0683 |
| RRIRWRPPRLPRPRPRPNNFPRP | -0.0323 |
| RRIRWRPPRLPRPRPRPNQCPRP | -0.384 |
| RRIRWRPPRLPRPRPRPNSHPRP | -0.16 |
| RRIRWRPPRLPRPRPRPNSPPRP | -0.255 |
| RRIRWRPPRLPRPRPRPNTFPRP | 2.19 |
| RRIRWRPPRLPRPRPRPNVEPRP | -0.319 |
| RRIRWRPPRLPRPRPRPNYGPRP | -0.281 |
| RRIRWRPPRLPRPRPRPPAAPRP | 0.913 |
| RRIRWRPPRLPRPRPRPPAYPRP | -0.0328 |
| RRIRWRPPRLPRPRPRPPDPPRP | 0.296 |

| Sequence | shrunken log2 fold change |
| --- | --- |
| RRIRWRPPRLPRPRPRPPEAPRP | 0.428 |
| RRIRWRPPRLPRPRPRPPEPPRP | -0.011 |
| RRIRWRPPRLPRPRPRPPEYPRP | 0.539 |
| RRIRWRPPRLPRPRPRPPGIPRP | 0.41 |
| RRIRWRPPRLPRPRPRPPGRPRP | 0.877 |
| RRIRWRPPRLPRPRPRPPKVPRP | 0.136 |
| RRIRWRPPRLPRPRPRPPMFPRP | -0.00833 |
| RRIRWRPPRLPRPRPRPPMVPRP | 0.104 |
| RRIRWRPPRLPRPRPRPPNNPRP | -0.0673 |
| RRIRWRPPRLPRPRPRPPPAPRP | 1.2 |
| RRIRWRPPRLPRPRPRPPPIPRP | 0.574 |
| RRIRWRPPRLPRPRPRPPQYPRP | 0.0672 |
| RRIRWRPPRLPRPRPRPPSHPRP | 0.163 |
| RRIRWRPPRLPRPRPRPPSVPRP | 0.171 |
| RRIRWRPPRLPRPRPRPPTPPRP | 1.4 |
| RRIRWRPPRLPRPRPRPPTTPRP | 0.277 |
| RRIRWRPPRLPRPRPRPPVQPRP | 0.952 |
| RRIRWRPPRLPRPRPRPPYFPRP | -0.0123 |
| RRIRWRPPRLPRPRPRPQAAPRP | 0.702 |
| RRIRWRPPRLPRPRPRPQADPRP | -0.104 |
| RRIRWRPPRLPRPRPRPQANPRP | 0.395 |
| RRIRWRPPRLPRPRPRPQAYPRP | 0.0869 |
| RRIRWRPPRLPRPRPRPQENPRP | -0.0785 |
| RRIRWRPPRLPRPRPRPQERPRP | -0.0207 |
| RRIRWRPPRLPRPRPRPQFQPRP | -0.523 |

| Sequence | shrunken log2 fold change |
| --- | --- |
| RRIRWRPPRLPRPRPRPQHEPRP | -0.0328 |
| RRIRWRPPRLPRPRPRPQHFPRP | 0.418 |
| RRIRWRPPRLPRPRPRPQHPPRP | 0.0134 |
| RRIRWRPPRLPRPRPRPQHRPRP | 0.25 |
| RRIRWRPPRLPRPRPRPQILPRP | -0.164 |
| RRIRWRPPRLPRPRPRPQLEPRP | 0.0296 |
| RRIRWRPPRLPRPRPRPQLGPRP | 0.276 |
| RRIRWRPPRLPRPRPRPQLYPRP | 0.185 |
| RRIRWRPPRLPRPRPRPQMLPRP | 0.313 |
| RRIRWRPPRLPRPRPRPQMNPRP | -0.243 |
| RRIRWRPPRLPRPRPRPQPMPRP | 0.145 |
| RRIRWRPPRLPRPRPRPQQDPRP | 0.0825 |
| RRIRWRPPRLPRPRPRPQRPPRP | -0.00892 |
| RRIRWRPPRLPRPRPRPQSNPRP | -0.124 |
| RRIRWRPPRLPRPRPRPQTTPRP | 0.206 |
| RRIRWRPPRLPRPRPRPQVVPRP | -0.00458 |
| RRIRWRPPRLPRPRPRPQYWPRP | -0.184 |
| RRIRWRPPRLPRPRPRPREIPRP | 0.426 |
| RRIRWRPPRLPRPRPRPRERPRP | 0.859 |
| RRIRWRPPRLPRPRPRPREVPRP | 0.477 |
| RRIRWRPPRLPRPRPRPRFRPRP | 0.314 |
| RRIRWRPPRLPRPRPRPRGPPRP | 0.931 |
| RRIRWRPPRLPRPRPRPRKRPRP | 0.726 |
| RRIRWRPPRLPRPRPRPRNGPRP | 0.401 |
| RRIRWRPPRLPRPRPRPRPCPRP | 0.514 |

| Sequence | shrunken log2 fold change |
| --- | --- |
| RRIRWRPPRLPRPRPRPRPMPRP | 0.427 |
| RRIRWRPPRLPRPRPRPRQLPRP | -0.0051 |
| RRIRWRPPRLPRPRPRPRSYPRP | -0.0435 |
| RRIRWRPPRLPRPRPRPRTAPRP | 0.564 |
| RRIRWRPPRLPRPRPRPRTMPRP | 0.205 |
| RRIRWRPPRLPRPRPRPRVAPRP | 0.699 |
| RRIRWRPPRLPRPRPRPRVDPRP | 0.39 |
| RRIRWRPPRLPRPRPRPRVLPRP | 0.381 |
| RRIRWRPPRLPRPRPRPRWCPRP | -0.00787 |
| RRIRWRPPRLPRPRPRPRWEPRP | 0.238 |
| RRIRWRPPRLPRPRPRPSAEPRP | 1.14 |
| RRIRWRPPRLPRPRPRPSAQPRP | 0.422 |
| RRIRWRPPRLPRPRPRPSCQPRP | 0.232 |
| RRIRWRPPRLPRPRPRPSDPPRP | 0.00652 |
| RRIRWRPPRLPRPRPRPSEAPRP | 0.0701 |
| RRIRWRPPRLPRPRPRPSERPRP | 0.415 |
| RRIRWRPPRLPRPRPRPSFMPRP | -0.304 |
| RRIRWRPPRLPRPRPRPSFQPRP | -0.284 |
| RRIRWRPPRLPRPRPRPSFWPRP | 0.372 |
| RRIRWRPPRLPRPRPRPSGGPRP | 2.77 |
| RRIRWRPPRLPRPRPRPSKTPRP | 0.0507 |
| RRIRWRPPRLPRPRPRPSLYPRP | -0.402 |
| RRIRWRPPRLPRPRPRPSNPPRP | -0.218 |
| RRIRWRPPRLPRPRPRPSPDPRP | 0.236 |
| RRIRWRPPRLPRPRPRPSPIPRP | -0.0871 |
